Measured values as given in patent publication US20210355227A1 (Regeneron, published 2021).

Assays:
[1] = target: T1, human GLP1R expressed with mouse IgG2a Fc (human); experiment: SPR Biacore 4000, mAb captured by anti-human Fc, 25 C
T1 construct: It is probably the N-terminal region, as for hGLP1R-MMH, but the sentence is ambiguous; also called hGLP1R-mFc
T1 chain: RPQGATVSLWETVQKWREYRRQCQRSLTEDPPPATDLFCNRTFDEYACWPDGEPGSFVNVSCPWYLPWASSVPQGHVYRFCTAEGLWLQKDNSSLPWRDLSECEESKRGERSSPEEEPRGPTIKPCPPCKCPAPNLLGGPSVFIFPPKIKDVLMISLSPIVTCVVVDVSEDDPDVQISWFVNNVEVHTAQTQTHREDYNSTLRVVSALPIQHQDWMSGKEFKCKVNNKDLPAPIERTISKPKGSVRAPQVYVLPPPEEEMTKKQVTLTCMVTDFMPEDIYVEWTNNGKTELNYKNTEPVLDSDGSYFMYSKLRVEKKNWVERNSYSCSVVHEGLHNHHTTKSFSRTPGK
Procedure: (§1) The equilibrium dissociation constant (KD) for GLP1R binding to selected GLP1R monoclonal antibodies (mAbs) was determined using a real-time surface plasmon resonance biosensor using a Biacore 4000 instrument. All binding studies were performed in 10 mM HEPES, 150 mM NaCl, 3 mM EDTA, and 0.05% v/v Surfactant Tween-20, pH 7.4 (HBS-ET) running buffer at 25° C. and 37° C. The Biacore CM5 sensor chip surface was first derivatized by amine coupling with human Fc specific mouse mAb to capture different GLP1R mAbs. […] At the end of each cycle, the GLP1R mAb capture surface was regenerated using a 12 sec injection of 20 mM phosphoric acid.
(§2) The association rate (kₐ) and dissociation rate (kd) were determined by fitting the real-time binding sensorgrams to a 1:1 binding model with mass transport limitation using Scrubber 2.0 c curve-fitting software. Binding dissociation equilibrium constant (KD) and dissociative half-life (t½) were calculated from the kinetic rates as:

[2] = target: T2, in-line fusion protein of human desA-GLP1 and GLP1R-MMH (human); experiment: SPR Biacore 4000, mAb captured by anti-human Fc, 37 C
T2 construct: also called hdesA-GLP1_GLP1R-MMH
T2 chain: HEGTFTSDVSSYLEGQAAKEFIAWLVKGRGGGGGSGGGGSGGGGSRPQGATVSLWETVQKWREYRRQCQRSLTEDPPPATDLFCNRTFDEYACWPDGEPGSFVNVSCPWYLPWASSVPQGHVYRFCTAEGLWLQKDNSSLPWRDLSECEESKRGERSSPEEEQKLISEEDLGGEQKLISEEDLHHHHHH
Procedure: as §1
(§3) The association rate (kₐ) and dissociation rate (kd) were determined by fitting the real-time binding sensorgrams to a 1:1 binding model with mass transport limitation using Scrubber 2.0 c curve-fitting software.

[3] = target: full-length human GLP1R on HEK293/CRE-luc/GLP1R cells (human, UniProt P43220 24-463); experiment: cell-based or functional assay
[4] = target: T3, macaca fascicularis GLP1R-MMH (macaca fascicularis); experiment: SPR Biacore 4000, mAb captured by anti-human Fc, 25 C
T3 construct: also called mfGLP1R-MMH; monomeric cynomolgus GLP1R
T3 chain: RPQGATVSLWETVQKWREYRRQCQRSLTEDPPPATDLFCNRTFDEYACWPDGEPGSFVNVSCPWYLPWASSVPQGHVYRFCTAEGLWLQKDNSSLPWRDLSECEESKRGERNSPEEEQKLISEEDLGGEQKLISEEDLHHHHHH
Procedure: as §1, §3

[5] = target: T4, N-terminal region of human GLP1R-MMH (human); experiment: SPR Biacore 4000, mAb captured by anti-human Fc, 37 C
T4 construct: also called hGLP1R-MMH
T4 chain: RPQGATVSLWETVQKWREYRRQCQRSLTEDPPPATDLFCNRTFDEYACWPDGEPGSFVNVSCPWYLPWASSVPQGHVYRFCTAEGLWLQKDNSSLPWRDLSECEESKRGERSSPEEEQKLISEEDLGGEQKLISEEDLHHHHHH
Procedure: as §1, §3

mouse GLP1R-MMH [6] = target: T5, mouse GLP1R-MMH (mouse); experiment: as above
T5 construct: It was injected at 100 nM only; also called mGLP1R-MMH; monomeric mouse GLP1R
T5 chain: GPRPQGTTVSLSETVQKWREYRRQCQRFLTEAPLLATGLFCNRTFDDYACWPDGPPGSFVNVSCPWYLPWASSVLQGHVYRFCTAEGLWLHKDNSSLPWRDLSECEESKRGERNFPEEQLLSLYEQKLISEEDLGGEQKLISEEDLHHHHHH
Procedure: as §1, §2

[7] = target: T3, macaca fascicularis GLP1R-MMH; experiment: as above
Procedure: as §1, §3

mouse GLP1R-MMH [8] = target: T5, mouse GLP1R-MMH; experiment: SPR Biacore 4000, mAb captured by anti-human Fc, 25 C
Procedure: as §1, §2

[9] = target: T1, human GLP1R expressed with mouse IgG2a …; experiment: SPR Biacore 4000, mAb captured by anti-human Fc, 37 C
Procedure: as §1, §2

[10] = target: T4, N-terminal region of human GLP1R-MMH; experiment: SPR Biacore 4000, mAb captured by anti-human Fc, 25 C
Procedure: as §1, §3

[11] = target: T2, in-line fusion protein of human …; experiment: as above
Procedure: as §1, §2

B1: mAb37645 (antibody, human IgG4 S228P, kappa, V domains shown)
VH: QVRLQQWGAGLLKPSETLSLTCAVYGGSFSGYFWSWIRQPPGKGLEWIGEINHGGNTNSNPSLKSRVTISVDTSKNQFSLKLSAVIAADTAVYYCARGQYRSGGGYWYFDLWGRGTLVTVSS
VL: EIVLTQSPGTLSLSPGERATLSCRASQSISSVHLAWYQQKPGQAPRLLIYGASSRATGIPDRFSGSGSETDFTLTVSRLEPDDFTMYYCQQYGSSPWTFGQGTKVEIKR
notes: In SPR the mAbs were captured by a human-Fc-specific antibody
- 100 nM hGLP1R-mFc Bound (RU) [1]: 91 RU
- Kd [1]: 1.42 nM
- koff [1]: 0.000183 s⁻¹
- kon [1]: 128000 M⁻¹ s⁻¹
- t½ [1]: 63 min
- 100 nM hdesA-GLP1_GLP1R-MMH Bound (RU) [2]: 71 RU
- Kd [2]: 16.5 nM
- koff [2]: 0.00229 s⁻¹
- kon [2]: 139000 M⁻¹ s⁻¹
- t½ [2]: 5 min
- % Inhibition of human GLP1R activation by 40 pM GLP1 (CRE-luciferase reporter) [3]: 73%
- IC50 [M] of inhibition of human GLP1R activation by 40 pM GLP1 (CRE-luciferase reporter) [3]: 1.23e-09 M
- 100 nM mfGLP1R-MMH Bound (RU) [4]: 35 RU
- Kd [4]: 19.6 nM
- koff [4]: 0.000826 s⁻¹
- kon [4]: 42200 M⁻¹ s⁻¹
- t½ [4]: 14 min
- 100 nM hGLP1R-MMH Bound (RU) [5]: 70 RU
- Kd [5]: 18 nM
- koff [5]: 0.00349 s⁻¹
- kon [5]: 195000 M⁻¹ s⁻¹
- t½ [5]: 3.3 min
- 100 nM mGLP1R-MMH Bound (RU) (mouse GLP1R-MMH [6]): 42 RU
- Kd (mouse GLP1R-MMH [6]): 29.8 nM
- koff (mouse GLP1R-MMH [6]): 0.00249 s⁻¹
- kon (mouse GLP1R-MMH [6]): 83600 M⁻¹ s⁻¹
- t½ (mouse GLP1R-MMH [6]): 4.6 min
- 100 nM mfGLP1R-MMH Bound (RU) [7]: 42 RU
- Kd [7]: 55.2 nM
- koff [7]: 0.00384 s⁻¹
- kon [7]: 69500 M⁻¹ s⁻¹
- t½ [7]: 3 min
- 100 nM mGLP1R-MMH Bound (RU) (mouse GLP1R-MMH [8]): 30 RU
- Kd (mouse GLP1R-MMH [8]): 10.8 nM
- koff (mouse GLP1R-MMH [8]): 0.000617 s⁻¹
- kon (mouse GLP1R-MMH [8]): 56900 M⁻¹ s⁻¹
- t½ (mouse GLP1R-MMH [8]): 19 min
- 100 nM hGLP1R-mFc Bound (RU) [9]: 116 RU
- Kd [9]: 2.59 nM
- koff [9]: 0.00065 s⁻¹
- kon [9]: 251000 M⁻¹ s⁻¹
- t½ [9]: 18 min
- 100 nM hGLP1R-MMH Bound (RU) [10]: 60 RU
- Kd [10]: 5.72 nM
- koff [10]: 0.000866 s⁻¹
- kon [10]: 152000 M⁻¹ s⁻¹
- t½ [10]: 13 min
- 100 nM hdesA-GLP1_GLP1R-MMH Bound (RU) [11]: 58 RU
- Kd [11]: 4.32 nM
- koff [11]: 0.00052 s⁻¹
- kon [11]: 120000 M⁻¹ s⁻¹
- t½ [11]: 22 min

B2: mAb37639 (antibody, human IgG4 S228P, kappa, V domains shown)
VH: EVQLLESGGGVVQPGGSLRLSCVASGFTFSSYAMSWVRQAPGKGLEWVSSISGSGGSTDNADSVKGRFTISRDNSKNTLYLQMNSLRAEDTAVYYCAKDRITIFGVVLNGAFDIWGQGTMVTVSS
VL: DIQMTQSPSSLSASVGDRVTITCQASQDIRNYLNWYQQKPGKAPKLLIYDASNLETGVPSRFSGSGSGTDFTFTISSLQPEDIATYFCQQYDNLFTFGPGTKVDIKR
notes: as for B1
- 100 nM hGLP1R-mFc Bound (RU) [1]: 122 RU
- Kd [1]: 2.37 nM
- koff [1]: 0.000156 s⁻¹
- kon [1]: 65900 M⁻¹ s⁻¹
- t½ [1]: 74 min
- 100 nM hdesA-GLP1_GLP1R-MMH Bound (RU) [2]: 21 RU
- Kd [2]: 74.2 nM
- koff [2]: 0.00127 s⁻¹
- kon [2]: 17100 M⁻¹ s⁻¹
- t½ [2]: 9 min
- % Inhibition of human GLP1R activation by 40 pM GLP1 (CRE-luciferase reporter) [3]: 100%
- IC50 [M] of inhibition of human GLP1R activation by 40 pM GLP1 (CRE-luciferase reporter) [3]: 6.55e-09 M
- 100 nM mfGLP1R-MMH Bound (RU) [4]: 83 RU
- Kd [4]: 1.42 nM
- koff [4]: 0.000195 s⁻¹
- kon [4]: 137000 M⁻¹ s⁻¹
- t½ [4]: 59 min
- 100 nM hGLP1R-MMH Bound (RU) [5]: 123 RU
- Kd [5]: 0.632 nM
- koff [5]: 0.000422 s⁻¹
- kon [5]: 668000 M⁻¹ s⁻¹
- t½ [5]: 27 min
- 100 nM mGLP1R-MMH Bound (RU) (mouse GLP1R-MMH [6]): 97 RU
- Kd (mouse GLP1R-MMH [6]): 22.1 nM
- koff (mouse GLP1R-MMH [6]): 0.00959 s⁻¹
- kon (mouse GLP1R-MMH [6]): 435000 M⁻¹ s⁻¹
- t½ (mouse GLP1R-MMH [6]): 1.2 min
- 100 nM mfGLP1R-MMH Bound (RU) [7]: 110 RU
- Kd [7]: 1.94 nM
- koff [7]: 0.000418 s⁻¹
- kon [7]: 215000 M⁻¹ s⁻¹
- t½ [7]: 28 min
- 100 nM mGLP1R-MMH Bound (RU) (mouse GLP1R-MMH [8]): 85 RU
- Kd (mouse GLP1R-MMH [8]): 16.9 nM
- koff (mouse GLP1R-MMH [8]): 0.00454 s⁻¹
- kon (mouse GLP1R-MMH [8]): 269000 M⁻¹ s⁻¹
- t½ (mouse GLP1R-MMH [8]): 2.5 min
- 100 nM hGLP1R-mFc Bound (RU) [9]: 185 RU
- Kd [9]: 3.52 nM
- koff [9]: 0.000354 s⁻¹
- kon [9]: 101000 M⁻¹ s⁻¹
- t½ [9]: 33 min
- 100 nM hGLP1R-MMH Bound (RU) [10]: 103 RU
- Kd [10]: 0.474 nM
- koff [10]: 0.000186 s⁻¹
- kon [10]: 393000 M⁻¹ s⁻¹
- t½ [10]: 62 min
- 100 nM hdesA-GLP1_GLP1R-MMH Bound (RU) [11]: 8 RU
- Kd [11]: 16 nM
- koff [11]: 0.00019 s⁻¹
- kon [11]: 11900 M⁻¹ s⁻¹
- t½ [11]: 61 min

B3: mAb36986 (antibody, human IgG4 S228P, kappa, V domains shown)
VH: QVQLVQSGTEVKKPGASVKVSCMASGYTFTTYGISWVRQAPGQGLEWMGWISAYNGNTKYAQRLQGRVTMTTDTSTTTAYMGLRGLRSDDTAVYFCARVTLSGRFDYWGQGTLVTVSP
VL: DIQMTQSPSSLSASVGDRVTITCQASQDISDYLNWYQQKPGKAPKLLIYDASNLETGVPSRFSGSGSGTDFTFTIRSLQPEDIATYYCQQYDNLPYTFGQGTKLEIKR
notes: as for B1
- 100 nM hGLP1R-mFc Bound (RU) [1]: 187 RU
- Kd [1]: 0.735 nM
- koff [1]: 7.64e-05 s⁻¹
- kon [1]: 104000 M⁻¹ s⁻¹
- t½ [1]: 151 min
- 100 nM hdesA-GLP1_GLP1R-MMH Bound (RU) [2]: 28 RU
- Kd [2]: 60.4 nM
- koff [2]: 0.000987 s⁻¹
- kon [2]: 16300 M⁻¹ s⁻¹
- t½ [2]: 12 min
- % Inhibition of human GLP1R activation by 40 pM GLP1 (CRE-luciferase reporter) [3]: 100%
- IC50 [M] of inhibition of human GLP1R activation by 40 pM GLP1 (CRE-luciferase reporter) [3]: 1.69e-09 M
- 100 nM mfGLP1R-MMH Bound (RU) [4]: 103 RU
- Kd [4]: 0.424 nM
- koff [4]: 0.000102 s⁻¹
- kon [4]: 240000 M⁻¹ s⁻¹
- t½ [4]: 113 min
- 100 nM hGLP1R-MMH Bound (RU) [5]: 135 RU
- Kd [5]: 0.594 nM
- koff [5]: 0.000544 s⁻¹
- kon [5]: 915000 M⁻¹ s⁻¹
- t½ [5]: 21 min
- 100 nM mGLP1R-MMH Bound (RU) (mouse GLP1R-MMH [6]): 70 RU
- Kd (mouse GLP1R-MMH [6]): 74.7 nM
- koff (mouse GLP1R-MMH [6]): 0.0485 s⁻¹
- kon (mouse GLP1R-MMH [6]): 649000 M⁻¹ s⁻¹
- t½ (mouse GLP1R-MMH [6]): 0.24 min
- 100 nM mfGLP1R-MMH Bound (RU) [7]: 128 RU
- Kd [7]: 1.59 nM
- koff [7]: 0.000501 s⁻¹
- kon [7]: 315000 M⁻¹ s⁻¹
- t½ [7]: 23 min
- 100 nM mGLP1R-MMH Bound (RU) (mouse GLP1R-MMH [8]): 88 RU
- Kd (mouse GLP1R-MMH [8]): 20.1 nM
- koff (mouse GLP1R-MMH [8]): 0.00902 s⁻¹
- kon (mouse GLP1R-MMH [8]): 449000 M⁻¹ s⁻¹
- t½ (mouse GLP1R-MMH [8]): 1.3 min
- 100 nM hGLP1R-mFc Bound (RU) [9]: 246 RU
- Kd [9]: 3.35 nM
- koff [9]: 0.000432 s⁻¹
- kon [9]: 129000 M⁻¹ s⁻¹
- t½ [9]: 27 min
- 100 nM hGLP1R-MMH Bound (RU) [10]: 115 RU
- Kd [10]: 0.139 nM
- koff [10]: 9.97e-05 s⁻¹
- kon [10]: 717000 M⁻¹ s⁻¹
- t½ [10]: 116 min
- 100 nM hdesA-GLP1_GLP1R-MMH Bound (RU) [11]: 13 RU
- Kd [11]: 3.56 nM
- koff [11]: 0.000108 s⁻¹
- kon [11]: 30400 M⁻¹ s⁻¹
- t½ [11]: 107 min
